{
  "source": "paper PMC4391263",
  "about": "“Alpers disease mutations in human DNA polymerase gamma cause catalytic defects in mitochondrial DNA replication by distinct mechanisms”",
  "binders": {"B1": {"name": "25-mer/73-mer primer-template (dsDNA)", "DNA 1": "GCCTCGCAGCCGTCCAACCAACTCA", "DNA 2": "CCCCACCTGCAGGCATGCAAGCTTGGCACTGGCCGTCGTTTTACCTCTTGAGTTGGTTGGACGGCTGCGAGGC"}, "B2": {"name": "25-mer/45-mer primer-template (dsDNA)", "DNA 1": "GCCTCGCAGCCGTCCAACCAACTCA", "DNA 2": "GGACGGCATTGGATCGAGGTTGAGTTGGTTGGACGGCTGCGAGGC"}},
  "key": {"[1]": {"target": "Pol-γA wild-type (exo+);Pol-γB accessory subunit (Homo sapiens;Homo sapiens, UniProt P54098;Q9UHN1 26-1239;26-485, |)", "sequence (P54098 26-1239, chain 1 of 2)": "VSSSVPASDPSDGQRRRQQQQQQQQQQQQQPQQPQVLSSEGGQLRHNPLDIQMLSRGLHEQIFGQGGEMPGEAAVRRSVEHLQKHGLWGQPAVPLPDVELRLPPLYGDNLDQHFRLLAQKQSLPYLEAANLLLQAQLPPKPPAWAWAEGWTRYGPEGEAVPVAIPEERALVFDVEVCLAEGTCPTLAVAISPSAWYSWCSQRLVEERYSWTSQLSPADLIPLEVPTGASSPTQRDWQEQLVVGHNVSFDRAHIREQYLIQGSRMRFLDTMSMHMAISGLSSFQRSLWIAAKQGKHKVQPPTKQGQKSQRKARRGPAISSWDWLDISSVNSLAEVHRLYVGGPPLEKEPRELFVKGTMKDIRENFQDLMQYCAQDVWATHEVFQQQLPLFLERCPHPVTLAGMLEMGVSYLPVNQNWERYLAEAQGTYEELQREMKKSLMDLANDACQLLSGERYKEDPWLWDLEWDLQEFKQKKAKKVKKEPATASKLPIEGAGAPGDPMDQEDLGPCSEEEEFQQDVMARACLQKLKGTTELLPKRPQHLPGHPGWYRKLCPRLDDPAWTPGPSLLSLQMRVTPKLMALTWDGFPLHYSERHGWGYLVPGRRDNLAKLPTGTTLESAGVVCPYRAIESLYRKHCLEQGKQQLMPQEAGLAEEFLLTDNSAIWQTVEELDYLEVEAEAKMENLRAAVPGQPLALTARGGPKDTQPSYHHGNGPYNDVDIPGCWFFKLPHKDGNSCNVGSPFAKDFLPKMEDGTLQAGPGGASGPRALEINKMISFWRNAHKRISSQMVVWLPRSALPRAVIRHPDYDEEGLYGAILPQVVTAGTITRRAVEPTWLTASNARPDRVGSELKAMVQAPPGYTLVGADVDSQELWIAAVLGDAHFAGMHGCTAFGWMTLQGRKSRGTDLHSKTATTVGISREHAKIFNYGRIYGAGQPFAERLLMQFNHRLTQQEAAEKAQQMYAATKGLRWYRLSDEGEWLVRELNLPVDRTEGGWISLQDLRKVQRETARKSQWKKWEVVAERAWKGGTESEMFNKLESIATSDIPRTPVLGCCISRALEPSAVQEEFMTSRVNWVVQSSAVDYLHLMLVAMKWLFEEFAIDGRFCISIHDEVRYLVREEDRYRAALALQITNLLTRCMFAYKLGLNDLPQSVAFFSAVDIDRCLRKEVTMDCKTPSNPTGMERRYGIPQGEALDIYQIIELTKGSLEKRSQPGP", "sequence (Q9UHN1 26-485, chain 2 of 2)": "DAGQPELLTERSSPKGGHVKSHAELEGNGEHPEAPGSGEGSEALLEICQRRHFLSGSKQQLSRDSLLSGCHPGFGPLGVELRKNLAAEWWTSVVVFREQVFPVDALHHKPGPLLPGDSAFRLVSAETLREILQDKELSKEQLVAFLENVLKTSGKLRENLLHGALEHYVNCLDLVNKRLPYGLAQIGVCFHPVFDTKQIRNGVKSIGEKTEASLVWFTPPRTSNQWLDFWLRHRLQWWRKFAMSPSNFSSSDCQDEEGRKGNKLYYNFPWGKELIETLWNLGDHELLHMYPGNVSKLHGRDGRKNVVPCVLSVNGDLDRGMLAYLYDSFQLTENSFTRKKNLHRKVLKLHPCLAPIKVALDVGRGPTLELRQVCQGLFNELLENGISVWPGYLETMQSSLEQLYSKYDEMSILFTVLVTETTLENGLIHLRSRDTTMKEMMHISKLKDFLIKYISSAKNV", "assay": "global fit of processive polymerization time course; 12.5 mM MgCl2; dATP, dGTP, TTP 5 μM each; 12.5 mM Mg2+, 37 °C; enzyme and DNA preincubated, rapid quench flow; buffer, salt and pH not given in the material. Table 1 WT Kd (9.9 ± 2.1 nM) is asterisked as apparently earlier data and not listed", "conditions": "protein: recombinant;recombinant; tags: ;; copies: 1;2; 5' overhang 48 nt on template, recessed primer 3' end"}, "[2]": {"target": "T1, Pol-γA P1073L (exo+);Pol-γB accessory subunit (Homo sapiens;Homo sapiens, UniProt P54098;Q9UHN1 26-1239;26-485, P1073L|)", "T1 sequence (P54098 26-1239 P1073L, chain 1 of 2)": "as the sequence (P54098 26-1239, chain 1 of 2) above, with P1048L counted along it", "T1 sequence (Q9UHN1 26-485, chain 2 of 2)": "as the sequence (Q9UHN1 26-485, chain 2 of 2) above", "assay": "global fit of processive polymerization time course; 12.5 mM MgCl2; dATP, dCTP, TTP 5 μM each; 12.5 mM Mg2+, 37 °C; enzyme and DNA preincubated, rapid quench flow; buffer, salt and pH not given in the material. Table 1 WT Kd (9.9 ± 2.1 nM) is asterisked as apparently earlier data and not listed", "conditions": "protein: recombinant;recombinant; tags: ;; copies: 1;2; label: 5'-32P primer; 5' overhang 20 nt on template, recessed primer 3' end"}, "[3]": {"target": "T1, Pol-γA P1073L (exo+);Pol-γB accessory …", "assay": "pre-steady-state single-nucleotide incorporation kinetics; 12.5 mM Mg2+, dATP; 12.5 mM Mg2+, 37 °C; enzyme and DNA preincubated, rapid quench flow; buffer, salt and pH not given in the material. Table 1 WT Kd (9.9 ± 2.1 nM) is asterisked as apparently earlier data and not listed", "conditions": "protein: recombinant;recombinant; tags: ;; copies: 1;2; label: 5'-32P primer; 5' overhang 20 nt on template, recessed primer 3' end"}, "[4]": {"target": "Pol-γA S305R (exo+);Pol-γB accessory subunit (Homo sapiens;Homo sapiens, UniProt P54098;Q9UHN1 26-1239;26-485, S305R|)", "sequence (P54098 26-1239 S305R, chain 1 of 2)": "as the sequence (P54098 26-1239, chain 1 of 2) above, with S280R counted along it", "sequence (Q9UHN1 26-485, chain 2 of 2)": "as the sequence (Q9UHN1 26-485, chain 2 of 2) above", "assay": "global fit of pre-steady-state single-nucleotide incorporation kinetics (quench flow, DNA titration); 12.5 mM Mg2+, dATP; 12.5 mM Mg2+, 37 °C; enzyme and DNA preincubated, rapid quench flow; buffer, salt and pH not given in the material. Table 1 WT Kd (9.9 ± 2.1 nM) is asterisked as apparently earlier data and not listed", "conditions": "protein: recombinant;recombinant; tags: ;; copies: 1;2; label: 5'-32P primer; 5' overhang 20 nt on template, recessed primer 3' end"}},
  "data": [
    {"binder": "B1", "values": [
      {"measurement": "Kd", "setting": "[1]", "result": 15, "unit": "nM"}
    ]},
    {"binder": "B2", "values": [
      {"measurement": "Kd", "setting": "[2]", "result": 15, "unit": "nM"},
      {"measurement": "Kd", "setting": "[3]", "result": "10.2 ± 1.2", "unit": "nM"},
      {"measurement": "Kd", "setting": "[4]", "result": "100 ± 4", "unit": "nM"}
    ]}
  ]
}
